Patent US20250011363A1, “OPTIMIZED SHORTENED PEPTIDE THAT BINDS TO ACETYLCHOLINE RECEPTOR, AND USE THEREOF” (SKINMED CO., LTD., priority 2021, published 2025)

B1: 5mer-213 (peptide)
peptide: RQYTK
B2: 5mer-508 (peptide)
peptide: KGLQK
B3: 5mer-502 (peptide)
peptide: RRISR
B4: 5mer-208 (peptide)
peptide: KLICR
B5: 5mer-211 (peptide)
peptide: RLYYR
B6: 5mer-222 (peptide)
peptide: KWLLR
B7: 5mer-220 (peptide)
peptide: KRILR
B8: 5mer-210 (peptide)
peptide: KVYYR
B9: 5mer-514 (peptide)
peptide: KLLLK
B10: 5mer-519 (peptide)
peptide: RLYSK
B11: 5mer-204 (peptide)
peptide: RQFQR
B12: 5mer-524 (peptide)
peptide: RRICR
B13: 5mer-518 (peptide)
peptide: RVYYR
B14: 5mer-512 (peptide)
peptide: RLYLK
B15: 5mer-499 (peptide)
peptide: RVLTK
B16: 5mer-509 (peptide)
peptide: RVQRK
B17: 5mer-348 (peptide)
peptide: KRQTK
B18: 5mer-215 (peptide)
peptide: RQYRR
B19: 5mer-525 (peptide)
peptide: KQRYK
B20: 5mer-206 (peptide)
peptide: KLQLR
B21: 5mer-517 (peptide)
peptide: KGYTR
B22: 5mer-505 (peptide)
peptide: RQIYR
B23: 5mer-511 (peptide)
peptide: KSLSR
B24: 5mer-521 (peptide)
peptide: KRFRK
B25: 5mer-200 (peptide)
peptide: KRVRR
B26: 5mer-199 (peptide)
peptide: KRYQR
B27: 5mer-219 (peptide)
peptide: KQYTR
B28: 5mer-205 (peptide)
peptide: RWYYR
B29: 5mer-226 (peptide)
peptide: RRYTR
B30: 5mer-523 (peptide)
peptide: KQFQK
B31: 5mer-520 (peptide)
peptide: RVLLK
B32: 5mer-513 (peptide)
peptide: RWYYK
B33: 5mer-510 (peptide)
peptide: RQLSK
B34: 5mer-1 (peptide)
peptide: RVQCK
B35: 5mer-500 (peptide)
peptide: KSLQK
B36: 5mer-212 (peptide)
peptide: KQQYK
B37: 5mer-217 (peptide)
peptide: KLQRR
B38: 5mer-503 (peptide)
peptide: KRVSK
B39: 5mer-203 (peptide)
peptide: RQLTR
B40: 5mer-507 (peptide)
peptide: KWVQK
B41: 5mer-504 (peptide)
peptide: KQIQR
B42: 5mer-218 (peptide)
peptide: KVQYK
B43: 5mer-506 (peptide)
peptide: RGRLR
B44: 5mer-522 (peptide)
peptide: RLVYR
B45: 5mer-224 (peptide)
peptide: RLQRR
B46: 5mer-202 (peptide)
peptide: KWYRR
B47: 5mer-216 (peptide)
peptide: KWVRR
B48: 5mer-209 (peptide)
peptide: RGVRR
B49: 5mer-515 (peptide)
peptide: RGQRK
B50: 5mer-516 (peptide)
peptide: KWQTR
B51: 5mer-225 (peptide)
peptide: KRQQK
B52: 5mer-201 (peptide)
peptide: RWIYR
B53: 5mer-214 (peptide)
peptide: KQQCK
B54: 5mer-223 (peptide)
peptide: KQVRK
B55: 5mer-501 (peptide)
peptide: KLQRK
B56: 5mer-207 (peptide)
peptide: KQVRR
B57: 5mer-221 (peptide)
peptide: RGRTR

Target: acetylcholine receptor
Test: SPR, AchR on chip, peptide 10 uM

Binder	Binding affinity (RU)
B1	83
B2	67
B3	84
B4	80
B5	73
B6	86
B7	81
B8	67
B9	52
B10	72
B11	84
B12	83
B13	87
B14	70
B15	76
B16	61
B17	80
B18	79
B19	51

Binder	Binding affinity (RU)
B20	57
B21	70
B22	71
B23	56
B24	78
B25	55
B26	84
B27	55
B28	75
B29	60
B30	84
B31	86
B32	83
B33	71
B34	54
B35	63
B36	64
B37	72
B38	61

Binder	Binding affinity (RU)
B39	78
B40	84
B41	72
B42	80
B43	51
B44	78
B45	67
B46	65
B47	56
B48	78
B49	56
B50	83
B51	51
B52	62
B53	79
B54	61
B55	78
B56	72
B57	58
